We go through two molecules from patent US11835506 (RADIUS HEALTH, dated 2023).

The target in the test is PTH receptors. As to the kind of experiment: cell-based or functional assay.

B1: (beta-Asp10) abaloparatide ([b-Asp10, Glu22,25, Leu23,28,31, Aib29, Lys26,30]hPTHrP(1-34)NH2) (peptide)
peptide: AVSEHQLLHXKGKSIQDLRRRELLEKLLXKLHTA
modifications: beta-Asp at position 10; Aib (2-aminoisobutyric acid) at position 29; C-terminal amide (NH2)
In the case of B1, the “EC50, production of cAMP in a cell base potency assay for functional PTH activity” value is 3.3 ng/mL.

On to AVSEHQLLHDKGKSIQDLRRRELLEKLLXKLHTA (Aib (2-aminoisobutyric acid) at position 29; C-terminal amide (NH2)) [abaloparatide ([Glu22,25, Leu23,28,31, Aib29, Lys26,30]hPTHrP(1-34)NH2)], for which the “EC50, production of cAMP in a cell base potency assay for functional PTH activity” value is 0.325 ng/mL.
